From patent US20090304724A1 (IPSEN PHARMA S A S, published 2009)

Tests used:
[1] = target: human growth hormone secretagogue receptor (human) (UniProt Q92847); assay: (125I)ghrelin displacement, hGHS-R CHO-K1 membranes
[2] = target: T1, human growth hormone secretagogue receptor (human, UniProt Q92847 1-366); assay: as above
T1 construct: whole, on cells; also called hGHS-R; ghrelin receptor
T1 sequence (Q92847 whole entry): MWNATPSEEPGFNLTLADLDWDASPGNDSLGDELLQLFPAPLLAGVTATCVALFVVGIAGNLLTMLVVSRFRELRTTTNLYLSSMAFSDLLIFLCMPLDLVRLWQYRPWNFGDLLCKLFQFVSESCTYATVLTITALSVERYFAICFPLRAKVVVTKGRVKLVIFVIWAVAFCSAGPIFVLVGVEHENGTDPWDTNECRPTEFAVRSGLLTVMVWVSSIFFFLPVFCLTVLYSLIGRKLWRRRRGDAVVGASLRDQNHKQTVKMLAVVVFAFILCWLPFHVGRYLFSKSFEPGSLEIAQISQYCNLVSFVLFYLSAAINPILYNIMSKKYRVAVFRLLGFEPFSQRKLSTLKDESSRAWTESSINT
Procedure: Membranes for radioligand binding studies can be and were prepared by homogenization of the foregoing CHO-KL cells expressing the human recombinant GHS receptor. The cells were homogenized in 20 ml of ice-cold 50 mM Tris-HCl using a Brinkman Polytron® (Westbury, N.Y.; setting 6, 15 sec). The homogenates were washed twice by centrifugation (39,000 g/10 min) and the final pellets were resuspended in 50 mM Tris-HCl containing 2.5 mM MgCh and 0.1% bovine serum albumin (BSA). […] The filters were then washed three times with 5-ml aliquots of ice-cold 50 mM Tris-HCl and 0.1% BSA, and the bound radioactivity trapped on the filters was counted by gamma spectrometry (Wallac LKB, Gaithersburg, Md.).

Chain of human growth hormone secretagogue receptor (human) (Q92847 whole entry): as above

Molecule: H-Inp-D-Bal-D-Trp-2-Thi-Apc-NH2 (peptide)
- Ki [1]: 0.4 nM

Molecule: H-Apc-D-Bal-D-2-Nal-Phe-Lys-NH2 (peptide)
- Ki [1]: 0.68 nM

Molecule: H-Inp-D-2-Nal-D-Trp(Ψ)-Pim (peptide)
- Ki [1]: 117 nM

Molecule: H-Inp-D-Bal-D-Trp-Taz-Lys-NH2 (peptide)
- Ki [1]: 0.52 nM

Molecule: Inp-D-2-Nal-D-Trp-Phe-Lys-NH2 (peptide)
- Ki [1]: 0.3 nM

Molecule: H-Apc-D-1-Nal-D-Trp-Phe-NH2 (peptide)
- Ki [1]: 0.7 nM

Molecule: H-Inp-D-Bal-D-Trp-Taz-Apc-NH2 (peptide)
- Ki [1]: 0.83 nM

Molecule: H-Apc-D-Bal-D-Trp-Phe-Apc-NH2 (peptide)
- Ki [1]: 0.71 nM

Molecule: H-Inp-D-Bal-D-Trp-Phe-Lys-NH2 (peptide)
- Ki [1]: 0.33 nM

Molecule: H-Apc-D-1-Nal-D-Trp-Taz-NH2 (peptide)
- Ki [1]: 1.41 nM

Molecule: H-Apc-D-Bal-D-Trp-2-Thi-Apc-NH2 (peptide)
- Ki [1]: 0.51 nM

Molecule: H-Inp-D-2-Nal-D-Trp-Taz-Lys-NH2 (peptide)
- Ki [1]: 0.8 nM

Molecule: H-Inp-D-Bip-D-Trp-Phe-NH2 (peptide)
- Ki [1]: 20 nM

Molecule: H-Apc-D-Bal-D-Trp-Taz-Lys-NH2 (peptide)
- Ki [1]: 0.5 nM

Molecule: GSXFLSPEHQRVQQRKESKKPPAKLQPR (Glu(O-hexyl) 3; C-terminal amide) [(Glu^3(O-hexyl))hGhrelin(1-28)-NH2]
- Ki [2]: 0.5 nM
